According to patent US20230312686A1 (Bristol-Myers Squibb, published 2023):
Blank lines part the entries; values can stand above or below the binder they belong to.

How the values were obtained:
[1] = biological target: T1, Recombinant murine glypican-3 (aa 25-557), R&D Systems (murine, UniProt Q8CFZ4 25-557); experiment: SPR, 37 C
T1 construct: also called muGPC3; Mu GPC3-His
Description: (§1) For off-rate measurements, single 200 nM adnectin/AdxDC concentrations were injected using identical conditions. One 30s injection of 10 mM glycine pH 1.7 was used to remove bound adnectin and regenerate the GPC3 surfaces between assay cycles.
(§2) Rate constants kₐ (kₒₙ) and kd (koff) were derived from reference-subtracted sensorgrams fit to a 1:1 binding model in Biacore T100 Evaluation Software v2.0.4 (GE Healthcare). The affinity constant, KD was calculated from the ratio of rate constants kd/kₐ.

[2] = biological target: T2, Recombinant human glypican-3 (aa 1-559), His-tagged, R&D Systems (human, UniProt P51654 25-559); experiment: SPR, 37 C
T2 construct: also called huGPC3; Hu GPC3-His
T2 sequence (P51654 other isoform, or with tags, fused parts or gaps): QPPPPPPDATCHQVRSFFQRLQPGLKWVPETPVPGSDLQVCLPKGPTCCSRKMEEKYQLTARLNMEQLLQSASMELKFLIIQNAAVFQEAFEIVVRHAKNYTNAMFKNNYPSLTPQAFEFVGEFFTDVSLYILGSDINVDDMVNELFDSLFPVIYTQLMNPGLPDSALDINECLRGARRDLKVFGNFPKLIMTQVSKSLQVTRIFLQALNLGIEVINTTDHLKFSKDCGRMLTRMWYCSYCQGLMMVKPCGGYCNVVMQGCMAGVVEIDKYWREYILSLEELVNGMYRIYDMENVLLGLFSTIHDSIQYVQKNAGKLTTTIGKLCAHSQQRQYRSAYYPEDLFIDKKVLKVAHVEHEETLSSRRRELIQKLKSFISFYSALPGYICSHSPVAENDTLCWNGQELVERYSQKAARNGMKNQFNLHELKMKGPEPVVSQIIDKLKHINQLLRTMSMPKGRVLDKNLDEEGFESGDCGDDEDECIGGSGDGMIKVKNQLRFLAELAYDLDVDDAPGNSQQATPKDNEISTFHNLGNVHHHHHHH
Description: as §1, §2

[3] = biological target: T3, Human glypican-3 on cells (Huh7, Hep3B, H446, Hep3B xenograft tissue) (human, UniProt P51654 25-554); experiment: cell-based or functional assay
T3 sequence (P51654 25-554 limits assumed): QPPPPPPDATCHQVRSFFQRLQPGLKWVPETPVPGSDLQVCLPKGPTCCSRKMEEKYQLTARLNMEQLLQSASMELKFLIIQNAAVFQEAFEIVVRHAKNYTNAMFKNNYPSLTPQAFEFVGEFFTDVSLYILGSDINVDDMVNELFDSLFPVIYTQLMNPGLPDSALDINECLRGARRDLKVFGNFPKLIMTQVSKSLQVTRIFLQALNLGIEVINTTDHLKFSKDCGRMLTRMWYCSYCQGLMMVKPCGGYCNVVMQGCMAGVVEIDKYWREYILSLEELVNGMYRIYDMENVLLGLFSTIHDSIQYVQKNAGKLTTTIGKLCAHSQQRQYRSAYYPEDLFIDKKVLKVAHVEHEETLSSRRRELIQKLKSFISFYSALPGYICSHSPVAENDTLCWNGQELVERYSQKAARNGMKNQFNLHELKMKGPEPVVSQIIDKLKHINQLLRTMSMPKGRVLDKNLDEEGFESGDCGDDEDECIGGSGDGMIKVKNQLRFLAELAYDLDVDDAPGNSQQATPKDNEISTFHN

[4] = biological target: T3, Human glypican-3 on cells (Huh7, Hep3B, …); experiment: flow cytometry on Huh7 cells, unconjugated protein; Huh7 cells; unconjugated protein
Description: The binding of DG variants to huGPC3 in DG GPC3 AdxDCs mutants were evaluated by flow cytometry for binding to Huh7 carcinoma cells grown in DMEM media with 10% FBS. Cells were harvested using Versene, an EDTA cell dissociation solution from Lonza, Cat. #17-711E. Tumor cells (1E5 cells/reaction) were suspended in FACS buffer (PBS, 1% BSA, 0.05% Na Azide) and mixed with a serial dilution of AdxDC for one hour on ice. Cells were washed three times with FACS buffer, and bound AdxDC was detected with an in house anti-scaffold monoclonal Ab and PE-conjugated Antibody from (RnD Systems), cat #NL007, and read on a flow cytometer.

[5] = biological target: T3, Human glypican-3 on cells (Huh7, Hep3B, …); experiment: flow cytometry on Hep3B cells, His Tag PE antibody
Description: GPC3 AdxDC were evaluated by flow cytometry for binding to human Hep3B hepatocellular carcinoma cells grown in MEM with 10% FBS, and H446 small cell lung carcinoma cells grown in RPMI with 10% FBS. Cells were harvested using Cellstripper, a non-enzymatic cell dissociation solution from Mediatch (Corning: Manassas, VA 20109), Cat. #25-056-CL. Tumor cells (25,000/reaction) were suspended in FACS buffer (PBS+5% FBS+0.01% NaN₃) and mixed with a serial dilution of AdxDC for 1 hour on ice. Cells were washed three times with FACS buffer, and bound AdxDC was detected with His Tag PE-conjugated Antibody from R&D System, cat #IC050P, and read on a flow cytometer.

[6] = biological target: T1, Recombinant murine glypican-3 (aa …); experiment: SPR, Biacore T100, 37 C, GPC3 immobilised, DAR1 AdxDC
Description: as §1, §2

[7] = biological target: T2, Recombinant human glypican-3 (aa …); experiment: as above
Description: as §1, §2

[8] = biological target: T3, Human glypican-3 on cells (Huh7, Hep3B, …); experiment: cell-based or functional assay; remark: listed apart in the source
[9] = biological target: T3, Human glypican-3 on cells (Huh7, Hep3B, …); experiment: flow cytometry on Huh7 cells, alkylated Adnectin
[10] = biological target: T1, Recombinant murine glypican-3 (aa …); experiment: SPR, Biacore T100, GPC3-His immobilised, 1:1 fit
Description: (§3) The binding affinities of the alkylated GPC3 DG mutant adnectins for human and murine GPC3 were further evaluated by Biacore T100 using HBS-P+ running buffer with direct immobilization of human and mouse GPC3 proteins [Hu (Fc 2,3) and Mu (Fc 4) GPC3-His (R&D Systems)] with a 200-1.56 nM series injected for 180s association, 600s dissociation.

[11] = biological target: T2, Recombinant human glypican-3 (aa …); experiment: SPR, Biacore T100, GPC3-His immobilised, 1:1 fit
Description: as §3

[12] = biological target: T1, Recombinant murine glypican-3 (aa …); experiment: SPR, as in the previous Examples
Description: as §1, §2
(§4) FITC Labeling: ADX_6077_F02 and non-binding control Adnectin were reduced with DTT or TCEP followed by G25 gel filtration chromatography or dialysis. Excess Fluorescein-5-maleimide reagent (Thermo Scientific) was then added and the mixture incubated at room temperature for approximately 2 hours followed by G25 gel filtration chromatography or extensive dialysis (3-4 buffer changes). The resulting degree of labeling was measured by absorbance following the manufacturer's instructions and/or by mass spectrometry. The binding affinities of FITC-labeled and PEGylated […] for human and murine GPC3 was evaluated as described in the previous Examples, and the results are summarized in Table 13.

[13] = biological target: T2, Recombinant human glypican-3 (aa …); experiment: SPR, as in the previous Examples
Description: as §1, §2, §4

[14] = biological target: T2, Recombinant human glypican-3 (aa …); experiment: SPR KD, 37 C, Biacore T100
Description: as §1, §2

[15] = biological target: T3, Human glypican-3 on cells (Huh7, Hep3B, …); experiment: staining of Hep3B xenograft tissue
[16] = biological target: T2, Recombinant human glypican-3 (aa …); experiment: SPR

T1 sequence (Q8CFZ4 25-557 limits assumed, form in doubt): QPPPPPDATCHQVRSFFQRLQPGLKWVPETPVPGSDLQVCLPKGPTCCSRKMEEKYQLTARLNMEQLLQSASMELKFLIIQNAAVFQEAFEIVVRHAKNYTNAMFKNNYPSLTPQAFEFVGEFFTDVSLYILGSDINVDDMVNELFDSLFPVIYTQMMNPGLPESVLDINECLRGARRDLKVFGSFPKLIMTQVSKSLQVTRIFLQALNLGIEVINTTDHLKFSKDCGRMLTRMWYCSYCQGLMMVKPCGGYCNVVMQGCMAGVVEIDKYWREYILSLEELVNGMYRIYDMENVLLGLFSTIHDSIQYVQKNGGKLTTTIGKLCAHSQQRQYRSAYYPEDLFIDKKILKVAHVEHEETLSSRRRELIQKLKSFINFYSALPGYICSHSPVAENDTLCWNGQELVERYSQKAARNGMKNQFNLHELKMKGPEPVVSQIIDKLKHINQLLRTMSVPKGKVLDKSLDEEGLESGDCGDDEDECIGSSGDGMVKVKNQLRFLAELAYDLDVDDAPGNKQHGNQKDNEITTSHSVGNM

Kd [1]: 23 nM
koff [1]: 0.00095 s⁻¹
Kd [2]: 25 nM
koff [2]: 0.0021 s⁻¹
B1: GPC3_AdxDC DA variant-DAR1 (designed binder)
chain: GVSDVPRDLEVVAATPTSLLISWSDDYHAHRYYRITYGETGGNSPVQEFTVPGEHVTATISGLKPGVDYTITVYAVTYDAEKAATDWSISINYRTPC
modifications: tubulysin analog-linker conjugated to the C-terminal cysteine (DAR1)
notes: also called DA variant AdxDC DAR1; GPC3_AdxDC (DA) DAR1
Cell-killing IC50 (Huh7) [3]: 0.2 nM

EC50 [4]: 2.2 nM
B2: DA variant of ADX_6077_F02, unconjugated protein (designed binder)
chain: B1 chain
notes: also called DA variant, unconjugated

binding result [5]: no binding (tested: about 30 nM)
B3: ADX_6093_A01-961(DAR2) (designed binder)
10Fn3 domain: MGVSDVPRDLEVVAATPTSLLISWDAPAVTVRYYRITYGETGGNSPVQEFTVPGSKSTATISGLKPGVDYTITVYAVTGRGESPASSKPISINYRTPCPPPPPCHHHHHH
modifications: the two C-terminal cysteines each carry the tubulysin analog-linker of formula (IV) (Drug/linker (2x), DAR2)
notes: It is the DAR2 counterpart of m12

Kd [6]: 11 nM
koff [6]: 0.00077 s⁻¹
Kd [7]: 12 nM
koff [7]: 0.00098 s⁻¹
B4: ADX_6077_F02 DAR1 AdxDC (GPC3-tubulysin Adnectin drug conjugate) (designed binder)
chain: MGVSDVPRDLEVVAATPTSLLISWSDDYHAHRYYRITYGETGGNSPVQEFTVPGEHVTATISGLKPGVDYTITVYAVTYDGEKAATDWSISINYRTPCHHHHHH
modifications: tubulysin analog-linker (formula IV) conjugated through its maleimide to the C-terminal cysteine (DAR1)
notes: also called GPC3 AdxDC DAR1; ADX_6077_F02-961
AdxDC cell-killing IC50 [8]: 0.2 nM

EC50 [9]: 5 nM
Fold affinity (KD) difference vs alkylated parent [10]: 1 fold
Kd [10]: 3.8 nM
koff [10]: 0.00049 s⁻¹
kon [10]: 130000 M⁻¹ s⁻¹
Fold affinity (KD) difference vs alkylated parent [11]: 1 fold
Kd [11]: 5.6 nM
koff [11]: 0.000534 s⁻¹
kon [11]: 95300 M⁻¹ s⁻¹
Kd [12]: 3.69 nM
koff [12]: 0.000453 s⁻¹
kon [12]: 123000 M⁻¹ s⁻¹
Kd [13]: 5.88 nM
koff [13]: 0.000524 s⁻¹
kon [13]: 89000 M⁻¹ s⁻¹
B5: ADX_6077_F02 alkylated (designed binder)
chain: B4 chain
modifications: C-terminal cysteine (of PC) alkylated with iodoacetamide
notes: also called alkylated (capped) Adnectin; alkylated parent

binding result [5]: no binding (tested: about 30 nM)
binding result [14]: no binding
B6: ADX_6093_A01 DAR1 AdxDC (non-binding control) (designed binder)
chain: MGVSDVPRDLEVVAATPTSLLISWDAPAVTVRYYRITYGETGGNSPVQEFTVPGSKSTATISGLKPGVDYTITVYAVTGRGESPASSKPISINYRTPCHHHHHH
modifications: tubulysin analog-linker (formula IV) on the C-terminal cysteine (DAR1)
notes: Control 10Fn3 with RGE in place of RGD; also called RGE AdxDC
AdxDC cell-killing IC50 [8]: > 25 nM

binding result [15]: no binding (tested: 0.2 µg/ml)
binding result [16]: no binding
B7: RGE-FITC (designed binder)
chain: B6 chain
modifications: fluorescein-5-maleimide on the C-terminal cysteine

EC50 [9]: > 200 nM
B8: ADX_6093_A01 alkylated (non-binding control) (designed binder)
chain: B6 chain
modifications: C-terminal cysteine alkylated with iodoacetamide
